Measurements taken from article PMC2655680 (Nucleic Acids Research, 2009).
Non-standard residues stand in square brackets, D forms with d. No end group written: not given here. pT = C[C@@H](OP(=O)(O)O)[C@H](N)C(=O)O; pS = N[C@@H](COP(=O)(O)O)C(=O)O

Target: full-length human PNK (human, UniProt Q96T60 1-521)
Test: ITC

| Binder | stoichiometry N |
| --- | --- |
| YAG[pS][pT]DENTDSE [XRCC1 peptide YAGpSpTDENTDSE, phosphorylated on Ser518 and Thr519] | 0.61 |
| YAG[pS][pT]DEN[pT]D[pS]E [XRCC1 peptide YAGpSpTDENpTDpSE, phosphorylated on Ser518, Thr519, Thr523 and Ser525] | 0.49 |
